Assay results: the supplement of paper PMC10567573
± gives the standard deviation.

Test: protein stability index of a GFP-peptide fusion (GPS, HEK-293T) (PSI 1-6); higher = more stable
[1] = treatment: DMSO, c terminus: a fixed tail appended
[2] = treatment: MLN4924 1 uM, 8 h, c terminus: a fixed tail appended
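Also: 24-mer peptide tiles fused after GFP, lentivirally expressed, FACS-sorted into six equal bins by GFP/DsRed ratio, decoded by Illumina sequencing, PSI is the read-weighted mean bin number.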

| Sequence | protein stability index [1] | protein stability index [2] | protein stability index (treatment: DMSO, c terminus: native) | protein stability index (treatment: MLN4924 1 uM, 8 h, c terminus: native) |
| --- | --- | --- | --- | --- |
| MDRRSRAQQWRRARHNYNDLCPPI [GNAS] | 2.92 ± 0.19 | 3.13 ± 0.3 | – | – |
| IDLATWNFQFLPQVNGHPDPFDEI [PTPN9] | 2.43 ± 0.22 | 2.54 ± 0.35 | – | – |
| CLGQLNLEQRSESVRRTRSKIGFG [SMAD6] | 3.06 ± 0.25 | 3.1 ± 0.35 | – | – |
| RCACAASSDESPGSKCSPEDLATA [TTC32] | 3.83 ± 0.49 | 4.08 ± 0.23 | – | – |
| LPELKANPFKERICRVFSTSPAKD [CIB1] | 3.46 ± 0.08 | 3.58 ± 0.2 | – | – |
| NESKGTRESWDSAKKLPPVQESQS [ELOA2] | 5.41 ± 0.096 | 5.1 ± 0.4 | – | – |
| LITQQIIPVLYCMVFIAGILLNGV [P2RY14] | 3.37 ± 0.2 | 3.42 ± 0.44 | – | – |
| VRKHPAVKEKGSTLDLSDLEAEKL [SCD] | 5.12 ± 0.3 | 4.82 ± 0.14 | – | – |
| AMLKALLGSKHKVCMDLRANLKQV [TNNI2] | 2.42 ± 0.18 | 2.33 ± 0.43 | – | – |
| HTSSEYDMLREMFSDSRSNNDDDE [TAF7L] | 5.57 ± 0.28 | 5.24 ± 0.53 | – | – |
| SCPNGMSAENGLEKSGFSQHQNKS [DLC1] | 4.86 ± 0.17 | 5.06 ± 0.11 | – | – |
| PKNGRHAWIWHDCHRHYHSMEVFT [LOXL2] | 2.28 ± 0.24 | 2.4 ± 0.17 | – | – |
| PTTGYRRLLRFSSQIHNNGQSDFR [LOXL2] | 3.03 ± 0.37 | 3.22 ± 0.31 | – | – |
| LLYTSLPDFCHKFLPGYVGGIQEG [DHCR7] | 2.58 ± 0.58 | 2.71 ± 0.63 | – | – |
| TAHMLGVRELRIAFREFDRDRDGR [CABP4] | 3.68 ± 0.34 | 3.7 ± 0.076 | – | – |
| ARSPSGPSGSLENGTKADGKDAKT [TRIM29] | 5.4 ± 0.19 | 5.54 ± 0.094 | – | – |
| LLTTSGIQFKKHEEEGIETQYFAE [CNOT7] | 4.13 ± 0.13 | 4.19 ± 0.11 | – | – |
| RRPVNVPLDMFSEEIKFYELGEEA [KCNA1] | 3.62 ± 0.33 | 3.84 ± 0.17 | – | – |
| RVRGRVGTIRPVRCPSSSLHMSQR [C22orf15] | 3.14 ± 0.28 | 3.57 ± 0.19 | – | – |
| QDGVSCLNIVERYDPKENKWTRVA [KLHL20] | 3.98 ± 0.28 | 4.08 ± 0.21 | – | – |
| TAAASRERQEEQSAAIHISETLEQ [EPB41L3] | 5.5 ± 0.061 | 5.4 ± 0.52 | – | – |
| TGLSMIANGGAICAVTFFTILLSY [OR4A15] | 2.85 ± 0.28 | 3.16 ± 0.38 | – | – |
| TSYTRQACLVSCFQQLMVETCSCG [SCNN1D] | 2.48 ± 0.53 | 2.31 ± 0.27 | – | – |

| Sequence | protein stability index [1] | protein stability index [2] | protein stability index (treatment: DMSO, c terminus: native) | protein stability index (treatment: MLN4924 1 uM, 8 h, c terminus: native) |
| --- | --- | --- | --- | --- |
| NFLFRNAASTLTERPCYNRRASKL [ANKRD40] | 3.19 ± 0.28 | 3.4 ± 0.12 | – | – |
| KFYPPDPAQLSEDITRYYLCLQLR [EPB41L3] | 2.49 ± 0.048 | 2.48 ± 0.87 | – | – |
| HTQAENAEFMRNFQKGQVTRDGFK [HMOX1] | 4.5 ± 0.17 | 4.54 ± 0.23 | – | – |
| VSRLTDTTKFTGSHKERFDPSGKG [TPPP] | 4.39 ± 0.1 | 4.5 ± 0.22 | – | – |
| VIKYNVNDKFSFHEVKDNYIPVIK [RHOBTB3] | 2.21 ± 0.44 | 2.75 ± 0.34 | – | – |
| TTSETQKSVQCGTWTKHAEGGIFT [NETO1] | 3.59 ± 0.085 | 3.62 ± 0.23 | – | – |
| SSSSSSSWLTRRAIRPENRAPGAG [EMD] | 4.33 ± 0.25 | 4.16 ± 0.25 | – | – |
| GAHSNAPITAHAEVEVVEEAKCCC [CSNK1G1] | 4.79 ± 0.22 | 5.23 ± 0.21 | – | – |
| DLSDLLQVDSLRPASFPTWGCDLG [BRF1] | 2.53 ± 0.28 | 2.73 ± 0.31 | – | – |
| ACIAYIRLTQYMDGSGMPKTMQSE [CAMK2D] | 2.88 ± 0.5 | 2.55 ± 0.59 | – | – |
| CLMIAAYKGHTDVVRYLLEQRADP [FEM1B] | 2.27 ± 0.14 | 2.35 ± 0.17 | – | – |
| LYPFQIHSIALSTFASLIGPFGGF [CDS1] | 3.36 ± 0.62 | 3.09 ± 0.36 | – | – |
| SDLNTNNLLFKPPVESHIQKNKKI [KMT2E] | 4.31 ± 0.16 | 4.45 ± 0.39 | – | – |
| EKGILTTEKQNFLLFDMTTHPVTN [GOLPH3L] | 3.69 ± 0.32 | 3.61 ± 0.27 | – | – |
| GNDRRREWAALGNMSKEDAMVEFV [ACBD3] | 4.11 ± 0.24 | 4.3 ± 0.26 | – | – |
| GALTPTPAPTTTTATREEASTSLP [CLPTM1] | 5.28 ± 0.33 | 5.58 ± 0.22 | – | – |
| PVSKPGALRRSLSRSMSQEAQRG [TCAP] | – | – | 3.19 ± 0.23 | 3.2 ± 0.37 |
| PESSALQPPPQSSEGLVGALMHVM [WAS] | 3.77 ± 0.17 | 3.58 ± 0.56 | – | – |
| PIRCGEVLFAVGGWCSGDAISSVE [KLHL20] | 2.22 ± 0.42 | 2.34 ± 0.41 | – | – |
| TLLQDHENQRLFEMLGRKCLTLAT [WAS] | 2.37 ± 0.29 | 2.33 ± 0.28 | – | – |
| NLAQDPQCKEWQVLMCGFPFLLLF [TMEM120A] | 2.5 ± 0.61 | 2.35 ± 0.61 | – | – |
| FDFERSGLQHAPEPDAADGPYDPN [SMAD6] | 5.37 ± 0.29 | 5.5 ± 0.41 | – | – |
| EDDPSVLYVSLHRYDHGTFFPMGD [HDAC6] | 2.29 ± 0.31 | 2.37 ± 0.3 | – | – |

| Sequence | protein stability index [1] | protein stability index [2] | protein stability index (treatment: DMSO, c terminus: native) | protein stability index (treatment: MLN4924 1 uM, 8 h, c terminus: native) |
| --- | --- | --- | --- | --- |
| HHCDDHLSLYQLSLERGTALFAQV [RSAD1] | 2.22 ± 0.66 | 2.03 ± 0.2 | – | – |
| GPPGRSIGGAAPSLGALDLLGPAT [SERTAD1] | 3.79 ± 0.14 | 3.81 ± 0.11 | – | – |
| DISERPSVDDIESETGSTGALETR [C2CD2L] | 5.56 ± 0.22 | 5.59 ± 0.34 | – | – |
| IYAYDAKIEIQTLTGLFKGDKCHS [CASP6] | 2.14 ± 0.7 | 2.26 ± 0.23 | – | – |
| AGNCPECGTPLRKSNFRVQLFEDP [MNAT1] | 3.62 ± 0.33 | 4.08 ± 0.2 | – | – |
| ALQSRAAQRHRGSAKDGGPQPPDA [PLEKHN1] | 4.57 ± 0.49 | 4.96 ± 0.34 | – | – |
| LSELLRYHTSQSGDEMTSLSEYVS [HSP90AB1] | 3.27 ± 0.23 | 3.6 ± 0.21 | – | – |
| SNLQAMSTQMFQTKRCFRLAPTFS [SMG5] | 2.17 ± 0.36 | 2.2 ± 0.14 | – | – |
| ATGPMGMRGFKGDRGPKGEKGEKG [SCARA5] | 5.22 ± 0.24 | 5.43 ± 0.34 | – | – |
| MYRWKLSSHEPCSATCTTGVMSAY [ADAMTSL2] | 2.24 ± 0.74 | 2.2 ± 0.73 | – | – |
| ISLEERRAQLPKYQRNLPRPGQAP [ZNF207] | 3.41 ± 0.12 | 3.67 ± 0.32 | – | – |
| MWKFVSPLCMAVLTTASIIQLGVT [SLC6A17] | 3.21 ± 0.58 | 2.87 ± 0.49 | – | – |
| PEDRPSLDDIIRHDFFLQGFTPDR [PLK2] | 4.35 ± 0.12 | 4.27 ± 0.29 | – | – |
| MGSASPGLSSVSPSHLLLPPDTVS [SPDEF] | 4.28 ± 0.27 | 4.2 ± 0.23 | – | – |
| TQEPIFTFTASFSGKVFPFFAVWK [TRIM15] | 3.19 ± 0.36 | 2.89 ± 0.66 | – | – |
| LFQTHENREHLVMMEKILGPIPSH [CLK3] | 2.85 ± 0.3 | 3.1 ± 0.15 | – | – |
| HHHGRSRPDRSSQGGSLPSEEKGH [CHGB] | 5.34 ± 0.06 | 5.31 ± 0.083 | – | – |
| MSLEPQNGTYAGPAPAFQPFFFTG [ANKRD40] | 2.29 ± 0.35 | 2.15 ± 0.31 | – | – |
| LPMLSVDMENKENGSVGVKNSMEN [SAMD13] | 5.09 ± 0.25 | 5.18 ± 0.27 | – | – |
| SSKTITAEIPDGPPVVAHYDMSDT [C18orf25] | 5.14 ± 0.14 | 4.96 ± 0.23 | – | – |
| LTKDEAAAHLKLTSIEEGYERSFI [IQUB] | 3.58 ± 0.39 | 3.43 ± 0.16 | – | – |
| QQQHVSCQVFPERLAQGNPQQGFF [ATP23] | 3.5 ± 0.34 | 3.28 ± 0.39 | – | – |
| VHQRTHTGEKPHTCSECGKGFIQK [ZNF649] | 3.67 ± 0.28 | 3.52 ± 0.58 | – | – |

| Sequence | protein stability index [1] | protein stability index [2] | protein stability index (treatment: DMSO, c terminus: native) | protein stability index (treatment: MLN4924 1 uM, 8 h, c terminus: native) |
| --- | --- | --- | --- | --- |
| QLLSERFGRGSRTVDLELELQIEL [ARFIP2] | 2.58 ± 0.46 | 2.99 ± 0.94 | – | – |
| DSAQMQNGGPSTPPASPPADGSPP [ANKRD40] | 5.24 ± 0.49 | 5.23 ± 0.19 | – | – |
| DQLLLATGLNNGRIKIWDVYTGKL [WSB1] | 2.17 ± 0.29 | 2.17 ± 0.31 | – | – |
| TLVQDLANAFQQEAQTSGKERLLL [CHIT1] | 3.16 ± 0.3 | 2.91 ± 0.19 | – | – |
| KNGQGFALVYSITAQSTFNDLQDL [RAP1B] | 2.23 ± 0.42 | 2.17 ± 0.45 | – | – |
| IIDSSRSVNTHDYAKVKEFIVDIL [MATN2] | 2.23 ± 0.2 | 2.37 ± 0.22 | – | – |
| LQDIKTAGPQSQVLCGVVMDRSLV [ADD1] | 2.98 ± 0.22 | 2.91 ± 0.19 | – | – |
| KDLVMYSKCQRLFRSPSMPCSVIR [CDC25B] | 2.2 ± 0.18 | 2.73 ± 0.34 | – | – |
| FVATFLRYAVVLNATWLVNSAAHL [SCD] | 3.31 ± 0.7 | 2.97 ± 0.33 | – | – |
| PQEKLWQQLRRGRYVEFNLLYDRG [CPOX] | 2.56 ± 0.11 | 2.55 ± 0.42 | – | – |
| ETALYRKMLGNPSRLPAKCPGKGA [FKBP8] | 3.61 ± 0.31 | 3.62 ± 0.3 | – | – |
| KVKRSLRQARKKGRHLELANQKLS [CCDC3] | 4 ± 0.26 | 4.39 ± 0.45 | – | – |
| CWDMQGKRFVAMKVVKSAQHYTET [SRPK2] | 2.34 ± 0.34 | 2.54 ± 0.3 | – | – |
| HFLENLDKSRKGELLKKSDLQKDF [PRIM1] | 3.52 ± 0.21 | 3.95 ± 0.37 | – | – |
| PFETREPPPAYEPPAPAPLPPPSA [SCAMP3] | 4.99 ± 0.22 | 5.08 ± 0.41 | – | – |
| LGRELMLQLSEFLCEEFRNRNQRI [CPN1] | 2.31 ± 0.2 | 2.26 ± 0.26 | – | – |
| PANVDASVMFRKWRDSKGKDKEYA [UBE2R2] | 4.09 ± 0.27 | 3.95 ± 0.24 | – | – |
| VFSDTATPDIKSHYAFRIFDFDDD [CIB1] | 3.19 ± 0.27 | 3.18 ± 0.42 | – | – |
| WGHCEVTMRYINGLDPEPLPLMDL [SPSB4] | 2.49 ± 0.26 | 2.5 ± 0.4 | – | – |
| QALRQMNEGAIDCVNYEGQSAYDV [DLC1] | 4.41 ± 0.22 | 4.39 ± 0.1 | – | – |
